Assay results taken from PMC8287928.

Legend:
[1] = biological target: SARS-CoV-2 spike S1 subunit (SARS-CoV-2 (wild type), UniProt P0DTC2 16-685); conditions: protein: commercial; tags: His
[2] = biological target: HCoV-229E RBD (HCoV-229E, UniProt P15423 293-435); assay: dot blot (filter binding); 50 nM protein; conditions: protein: recombinant; tags: C-terminal His; hairpin
[3] = biological target: MERS-CoV RBD (MERS-CoV, UniProt K9N5Q8 367-588); conditions: protein: recombinant; tags: C-terminal His; label: 5'-32P; hairpin
[4] = biological target: SARS-CoV-1 full spike protein (SARS-CoV-1, UniProt P59594 14-1195); conditions: protein: commercial; chain copies: 3; label: 5'-32P; hairpin
[5] = biological target: SARS-CoV-1 RBD (SARS-CoV-1, UniProt P59594 306-527); conditions: protein: recombinant; tags: C-terminal His; label: 5'-32P; hairpin
[6] = biological target: Human alpha-thrombin (human, UniProt P00734;P00734 315-363;364-622)
[7] = biological target: SARS-CoV-2 spike RBD (SARS-CoV-2, UniProt P0DTC2 319-541); conditions: protein: commercial
[8] = biological target: SARS-CoV-2 spike S1 subunit (SARS-CoV-2 (wild type), UniProt P0DTC2 16-685); conditions: protein: commercial; tags: His; remark: listed apart in the source

Sequence of HCoV-229E RBD (P15423 293-435): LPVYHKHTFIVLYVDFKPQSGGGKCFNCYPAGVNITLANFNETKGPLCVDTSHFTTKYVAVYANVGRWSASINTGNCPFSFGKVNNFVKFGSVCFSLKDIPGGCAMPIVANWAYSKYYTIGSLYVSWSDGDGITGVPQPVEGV
Sequence of MERS-CoV RBD (K9N5Q8 367-588): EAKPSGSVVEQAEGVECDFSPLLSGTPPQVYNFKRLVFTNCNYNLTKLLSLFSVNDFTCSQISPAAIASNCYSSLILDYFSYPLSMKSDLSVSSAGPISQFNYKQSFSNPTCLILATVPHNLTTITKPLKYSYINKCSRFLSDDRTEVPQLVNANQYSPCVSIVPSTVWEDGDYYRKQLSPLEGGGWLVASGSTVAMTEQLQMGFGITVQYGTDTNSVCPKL

## TCCACGGGTTTGGCGTCGGGCCTGGCGGGGGGATAGTGCGGTGGA (structured_DNA) [MSA5-T1]
[1]
  Kd: 8.4 nM

B1: MSA5 (structured_DNA)
DNA: TTACGTCAAGGTGTCACTCCACGGGTTTGGCGTCGGGCCTGGCGGGGGGATAGTGCGGTGGAAGCATCTCTTTGGCGTG
[2]
  binding result: no binding
[3]
  binding result: no binding
[4]
  binding result: no binding
[5]
  binding result: no binding
[6]
  binding result: no binding
[7]
  Kd: 4 ± 0.6 nM
[1]
  Kd: 2.7 ± 0.2 nM

## ACAGCGTCTGGTTGGTTTGGTTGGATCTTCGATCGCTGT (structured_DNA) [MSA3-T2]
[1]
  Kd: 1.9 nM

B2: MSA1 (structured_DNA)
DNA: TTACGTCAAGGTGTCACTCCCACTTTCCGGTTAATTTATGCTCTACCCGTCCACCTACCGGAAGCATCTCTTTGGCGTG
[2]
  binding result: no binding
[6]
  binding result: no binding
[8]
  Kd: 1.8 ± 0.4 nM

## TCCGGTTAATTTATGCTCTACCCGTCCACCTACCGGA (structured_DNA) [MSA1-T3]
[1]
  Kd: 3.1 nM

B3: MSA7 (structured_DNA)
DNA: TTACGTCAAGGTGTCACTCCTGGCTGTGGGGTTCGGGGTCACTATTTGTCGGGAGGGGAGGAAGCATCTCTTTGGCGTG
[1]
  Kd: 76.2 ± 10.5 nM

## TTCCGGTTAATTTATGCTCTACCCGTCCACCTACCGGAA (structured_DNA) [MSA1-T2]
[1]
  binding result: binds

B4: MSA4 (structured_DNA)
DNA: TTACGTCAAGGTGTCACTCCTGTGGGCGGGGGCGGTTGATTGTATTACTGTCGGGAGGGGGAAGCATCTCTTTGGCGTG
[1]
  Kd: 27.6 ± 0.6 nM

B5: MSA9 (structured_DNA)
DNA: TTACGTCAAGGTGTCACTCCTTCGTGTGGGTGGGGTCCTAACTTTCCTGTCGGGGTCGGGGAAGCATCTCTTTGGCGTG
[1]
  Kd: 37.4 ± 1.6 nM

B6: MSA6 (structured_DNA)
DNA: TTACGTCAAGGTGTCACTCCTCGGGGGGGTTTGGCACTGGGCCTGGCAGTACCGGGTCGCGAAGCATCTCTTTGGCGTG
[1]
  Kd: 16.2 ± 2.3 nM

## CCGGTTAATTTATGCTCTACCCGTCCACCTACCGG (structured_DNA) [MSA1-T4]
[1]
  fold Kd increase: 36 fold Kd increase vs MSA1-T3

B7: MSA2 (structured_DNA)
DNA: TTACGTCAAGGTGTCACTCCTCAGTGGGAGGGGGTCCATGTCTTGTCGGGGTCGGGGGTGGAAGCATCTCTTTGGCGTG
[1]
  Kd: 9.2 ± 0.2 nM

B8: MSA3 (structured_DNA)
DNA: TTACGTCAAGGTGTCACTCCTACAGCGTCTGGTTGGTTTGGTTGGATCTTCGATCGCTGTGAAGCATCTCTTTGGCGTG
[1]
  Kd: 1.9 ± 0.1 nM

B9: MSA10 (structured_DNA)
DNA: TTACGTCAAGGTGTCACTCCGCGGGTTTGGCTCCGGGCCTGGCGTTGCGGTCTGCTCCCCGAAGCATCTCTTTGGCGTG
[1]
  Kd: 134 ± 21.3 nM

B10: MSA8 (structured_DNA)
DNA: TTACGTCAAGGTGTCACTCCATGTGGGTGGGGGTCATTCTTCAGTGTCGGGAGGGGGTGGAAGCATCTCTTTGGCGTG
[1]
  Kd: 23 ± 1 nM

## CTCCACGGGTTTGGCGTCGGGCCTGGCGGGGGGATAGTGCGGTGGAG (structured_DNA) [MSA5-T3]
[1]
  Kd: 7.3 nM

## ACGGGTTTGGCGTCGGGCCTGGCGGGGGGATAGTGCGGT (structured_DNA) [MSA5-T2]
[1]
  Kd: 10.1 nM

## TCCACGGGTTTGCTGGCGGGGGGATAGTGCGGTGGA (structured_DNA) [MSA5-T6]
[1]
  Kd: 264 nM

## TCCACGGCGTCGGGCCTGGCGGGGGGATAGTGCGGTGGA (structured_DNA) [MSA5-T7]
[1]
  Kd: 22.8 nM

## CTTCCACGGGTTTGGCGTCGGGCCTGGCGGGGGGATAGTGCGGTGGAAG (structured_DNA) [MSA5-T4]
[1]
  Kd: 6.3 nM
